Measurements published in the domain aggregation screens of Martell et al. (2025).

Assay: soluble fraction after stress (log2 fold change); higher = more stays soluble; pooled small domains, quantitative proteomics
Conditions: stress: 50 degC
How it was run: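 The measure of aggregation propensity here is the base-two logarithm of the fold change in the soluble amount of each protein after stress. A higher value means more of that protein stays in solution. Stress was applied at 50°C to pooled libraries of small protein domains, read out by high-throughput quantitative proteomics.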

Sequence	soluble fraction (log2)
HMQTPVTVGDTMPNLIGTPKRLLLELLNRTDITVKLTGDGYVTAQSPAAGTPIAKGMIIELSL	-0.296
HMNFIPGEKINLKIVQEGKEKNQGVGYLSDGTMVIVENGSQKLGQDVEVVVIKNIQSSAGKIVFGDISK	0.0978
HMNNPISMQKLRQVIRLYGQGKGTKSINSMLGVSRNTIKKYLQVYHSSGINYESFLAMSDKELSAVFLV	-0.398
HMLTEERLQIITDTVNSRSSVTIAELSRILDVSPSTVKRDLNILAEAGKITKVRGGAIALGE	-0.0232
HMGFEALRSRHRITAREMEVLQHMLAGRSNAEIGHTLGLSERTVKTHITSIFNKLGVDSRAQLGYMLK	-0.498
HMVEIPEFKITTFVNTDNEQIAEFENGFTDKKAEITFNNTKYVFKEKLPDQDGIRTYVYEELHE	0.117
HMVLSVRDRMVQILDQVKTGEYKRIEDFFSADEGRTGFVVSFVAILELVKGGLLTITQSKNLAPIYVRLPN	-0.19
HMFDLKKIYGTILDETKSSLLLSTDDGREVQIIKTDGTEVLASGLGVYVEVAYRDETPDGYPIALTI	-0.193
HMKRISDEDLLVMRRIDEVHTYHPTWGYRTITRILRRDDHLLINPKKVRRIMRDMGIYTIYPK	-0.039
HMAAVAPPVLERIASDLATRFAGTLSPETVDRYVRESYHLLAERAGITRYLPSLTARFAGDRLDA	0.0481
HMQNVFARKNLTSVSVDKLGEEEILLFKQSFESKNLTSSEALRDLSKKGMSEAELRKLKVRLTQL	-0.074
HMEEQKYEYHLGDVVYLGVDKYEILGITNNIVTLYDPEFPLLNKQLDFDEFEKRVKDNYANEHLKVT	-0.429
HMVAADTVQVPDVTGKTVADAKQALISAGLQVGTVTAKDGKETANTILETSPAAGTSVDKGSKVNLVYSTG	-0.185
HMRDSYTFEDIEKLKDSYLQDSEKALEKLISIYEDTNQSLAIRTAALDIITDSQDPTFKLALEKIIS	0.0263
HMVKEVKVPDVEGLTTEEAIKELKKYGLAYTTKSEENTDIEEGKVIRTEPKKGSTKVKGSTVTIIESSG	-0.169
HMDHSSLIKKLRLERGLSQKKLAQGISQRSTLASFENNATKISYNILIQYLDRMNVTLEEYQFMLDGNNL	-2.06
HMVSDISTQYQKIINEALDKQPEVKLADIVTMIKEQTSNKVQNGIVENVAKQMNGIEIIKIGQAKGVRRTT	0.116
HMNVTIGESIKNVINHYGTPIYSYNPNNQEKYYEFHTNKGVLVVTAIGKKNTGYVTRVSMTY	-1.18
HMLGSVRTIRQVLDDGRLIVADGGGNPSVIRRSGALAHETFANGQRVIVDPSGRLALELLPD	0.314
HMRVPTVIGMDEGTAKATLANASLKSNIVYESDETKENGKVLSQGIEQNKEVKAGTTVEIKVNKIE	-0.0202
HMPPPVERAIRKLGHDLSLARRRRRISQDSMAQRMGASVSTVRRIEKGDPRIPIHFIARAMMILGDLKAL	-0.0422
HMSGPMVPNVVGLSEEMARALLSDYSITIKHAHDGVIPKDRVASQLPLATTHAKVGSSVVLTIS	-0.354
HMAKIATTVYEQIRTAILNGELSNSERLVEEDLAVSMGISRTPVREALRRLAAEGLVDVSPNRGARVAE	-0.293
HMQISYDVPNLIGKSYEEVMTDPSILGEHFTVVLGETKTDEDTDAGVILHQDPAADSKVQDEVTPITVTVS	0.42
HMSVDDEQLLKIIDDIFQQNPQAVTDAKTDSNAIHFLIGQVMKETKGHADHAISKEIIEKKLS	0.00481

Sequence	soluble fraction (log2)
HMNTELSPKVWDVVQEFILYRKEIKAPMTEHAVKLLIGQLQKLSSDPDEQIEILRQSIVNGWKGIFSLK	-0.183
HMSTANIVVPDVKGKTFEEAKKAIEAEGLTAKAEGDESGVVQKTSPSYGVSVESGSEVTLTLVKSDD	-0.0409
HMAFRLPNGYGTIRRLTGNRRKPYVALVNPTQVFDDEKGTSHYKYDLLGTFAEKIDAYNAVMQYHKSPGGL	-1.35
HMEGPALKVWKARYLRAAILEQLLSDRWDDRGGQPIRVVVNEPTNSLLIRIPRHLWPEAEKLLQELDQR	-1.02
HMLTPSRVLPYLFEDSFFIDTLSLEKDQVVGFLEYIDERLPPQDLMNKSKEFELIDYLINESEAYLSQ	0.0334
HMTMQTAEQESRLEQKLIDLSVGIDRFEGYSRPHGQLIASIADRIGTRLGMAAHDRFYMQQAAL	0.107
HMSKLSVSSLSSPEVQNQLKAAGIDVNSRQYQVVMKDMMGALDGRAGYTTVSAIKNRMRQYNADGDY	0.474
HMLDKKKHLEQGRKIIEDQLAKYKIQPSFDTLKKLSAYYGLNNKEQLYAQVGMGFLELENLDEILQ	≥ 0.62
HMDLHERISSVLLGTGKSNDELAQILGVNKNTISAYKNKHGDLKGIVLEGIVKHFDINPVWLLTGSGTR	-0.54
HMSQLVTGVLRNLNDISEKIAAGKAVPEMLGRLENMQQMIANLKGNEGLIKSISILTRSAQDALR	0.00825
HMGEKTLSEKVYDRLKELIMDGELERGTKITETSIAKMFDVSPTPVREAFRKLASDGLIEVASWKGVIVKG	-0.0886
HMVQARDQNIEEGRQLVLRELDRLDLVNESLTDVAADMNMKSVEDMYAAIGAGDLRVGQVVHAVLKRAD	0.00761
HMNEFAYLIKISPEHNNNRYYRMVAEGDNFRIEMGRIGASPVQMKRPMYLWNETYQKKLQEGYTDRTSYTS	-1.92
HMIPTDPNGDLIKILYTSDQINELYARAKLNDVEDLFLDWTKNVLGESNFEETGPTKNEYLIPQ	-0.149
HMDKEQVTFIFRDIDIALRSLDYPIKDIKNTLNIIKSEFSNSKSTELNEQKINFENILKEAISILENND	-0.627
HMAVRNTKQKQLVLSLLKNSGRPMTAGEIYRLAVQQYPNIAKSTVYRNLENLVSRGEVSQGMHQNGESFYS	-0.299
HMFKDVTVPSVINKTEAEATNMLKGLNLVVSVEYEENANKSDGIVTAQNVNANKVIKEGETVTITVNKQP	0.00765
HMDDKVGKVFNYVQEKILTGEWDIGDKITPEISLSKELGVSRSVVREAIKKFVALNILSRTQGGGTYVNNL	-0.515
HMGGPEPIPAQIREGDTVYVTKFKQLGLVLKISEDTAEVQIGPLRATVAKTELSKVDATATEHR	0.158
HMTGENWAERSRQLAAAGLLVLGKEAQEKIASLPNLIPLIEAAAASDTRLLNAQTIDELLSFVPTEETI	-0.05
HMTQLPEVPVERGMVLEEVQSGWVGAVTRVEKSGGMHVVALEDRRGKSRSFRLGFGFLLEGQPIRLMPPAP	-1.42
HMPLDPFVVDALRDEIINTIKQHEPRVDLQKVQVQPIYTQNRVNISVQYKIVGLPIVEDITFVLQRP	-0.0764
HMELNELTSRELMVAEQVARGASNREISEALSISERTVKAHLSAAFEKLGVRDRVQLALAMNNIPT	-0.0086
HMELRIREILESKDIKVSSLAETVGITRANMSNIVNGKSTPSLETLEKIANALGVDITELFA	0.116
HMGPRPLPAEFTHPSLRALLALGTTRGGVTSADVKTALEAASVPAGRRAAVLRALDDNGIEVHTEP	0.0376

Sequence	soluble fraction (log2)
HMESIEAGTFELDNKTSIDISEDEANLLNKMFEELTETNSKDMYGVMVADEAGFNEILEFAKENL	0.167
HMEEIPYGVISAKAGAAAYDYIKKSIELGIEKKIDGVATAPIQKEAIHMAGISYIGHTEMYQGIT	0.0739
HMEPMLEIFDAKIDLADVLAVESGLVRLRGGAEVTSPRVDVDAGARLELDSGARLNVERLSY	0.0258
HMDVEMLIDKYQLNDSEAEVLRFMKKNRQSLKTIGIRDVAKATYVSTATIINMAKKIGYSGYSELVFALGN	-0.0472
HMGQKMLTIELQEKVNKMPDNLASYDLKLSADGMSLIYKYSLKSERTGITALLQELKNAGLVMRDLKTEQ	-0.0274
HMTFDWAAYEISEKEIRVMSLVAEGFSNKEIAQELFLSEGTVRNYISNILEKLGLRDRTQLAVHYLKAV	-1.28
HMKKTVTDSVELLTFLKDIFTNTSTNKLRKMLTTGRVTVNNIVIHKAKHILVQNDVVEIGDK	-1.86
HMEDTFEYPVSVNGKLRFKIELPVSMEKDEIRNIVLNDERAKKWLATGTLTNLIVVPNRIINIVIK	-0.124
HMHANSDVEQLMQMGIQRLNFQRYSDALLIFNQIIENFPDYAEAWNKRATLHYLLGNLDKSIADIEQTLE	-2.54
HMTIGKRIKRRRIELKMSIDSLARTIGKDRSTVYRYESGAIDKVSSDVLAKLATALNTTPAYLIGL	-3.27
HMATPEINNLGRLRNAINQSNVNWHQIIKRLQNEYPNNWRQILIAIDRHDLLFRYDVENYIKYG	-1.56
HMQQAVTMQKPGRLLRNADGNGGAVRDLDVGMMLYPTGNRSELMWEVDDELGNRGWVNSTLFGLS	-0.109
HMRMTKPLPFDLAAFRNEFGFTKSIIMQEVGVSRHIYDNVERTNATPPEFYDDFVSFFQRHGQ	-1.04
HMFSLDMDRLVRPGFMASGNVTFSDGVTGKWALDQMGRLALETAQKGYQPSPADVQAFQRELQQQLQRQG	-0.0885
HMTKNEFLQGLKEELEGRVTHSAIQENIRYYDDYISQEVLKGSTEEEVTESLGGPRIIARTIVDAAYD	-0.0458
HMLPAGSDAILRYLSSGAVKGIGVATAARIVEKFGDETLRILEEEPGRLAEIKGITAAKAKAIGEAFAGQ	-0.168
HMGGFNATTLQNIEELRRSLSDADQFGRHEVIETIGGSDSRAGKLLKKMLEAGIIEQVKGHGKGRYRFKRT	-0.0136
HMQGQADFTQGIANFTQYPVGSRITVFTLEGRRVAVVEIGKDGTAQLDMRNKPAGVYIVNTGKQSFKWLK	-1.26
HMSNLLKNILDVLEKEGPLKARKIALLLDSTRTTITHTTINSELYKALDLEGLTKNEQNIWSYVT	0.00627
HMKTEIKSPLPGIVLKIFVRTGEYVDKNQRLFSLEAMKMENEIKAERAGVIAGIRISEGQSVLQDEVIMEM	-0.297
HMVQVRQPAGAGDLFAKGRLHLSTGTIHTVKPLEVDLPKGRLTVVTGVSGSGKTTLILESLLPALAAAAA	0.482
HMDIKEIIKNRRIELGLTLKEVATAVGVSEGTVSRWESGNITNMKRNKIAALAKTLQIPPTTI	-0.259
HMYAHLGKNLEVVINKALAQEDPEKKAGFAHHIAYYMKLAYSNWHKELVHDDAIRSELDTITGGELEFSN	0.499
HMAVSSHAVKQRIRSLIQAEDPAAPLSDEALRLALSALGVDVSRRVIAKYRAELNIPSSSQRKK	0.045
HMLLSTHVVVAKEDVQIGTRLQPAMLQVVDWPSASPLKNPLTSIEQATDRVVNMPLVKGEPISMSKLAAKG	0.00241
